Measurements taken from the supplement of paper PMC9112550, “Optimization of the antimicrobial peptide Bac7 by deep mutational scanning” (BMC Biology, 2022).

System: Escherichia coli TOP10
Test: shrunken log2 fold change of peptide-encoding DNA abundance (4.5 h post-induction vs induction); higher = less antimicrobial activity (less host growth inhibition)
Settings: time post-induction: 4.5 h; library: site-saturation at positions 5, 18, 19, 20
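Note: peptides expressed intracellularly from a pBAD plasmid library in pooled LB shake-flask culture, induced with 0.3% L-arabinose, DNA abundance read by NGS, three biological replicates, DESeq2 with apeglm shrinkage.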

Sequence | shrunken log2 fold change
RRIRSRPPRLPRPRPRPTRLPRP | 0.699
RRIRSRPPRLPRPRPRPTRMPRP | 1.03
RRIRSRPPRLPRPRPRPTTFPRP | -0.272
RRIRSRPPRLPRPRPRPTWRPRP | 0.424
RRIRSRPPRLPRPRPRPVADPRP | 0.0874
RRIRSRPPRLPRPRPRPVAQPRP | 0.101
RRIRSRPPRLPRPRPRPVDEPRP | -0.216
RRIRSRPPRLPRPRPRPVFEPRP | -0.0222
RRIRSRPPRLPRPRPRPVGAPRP | 0.538
RRIRSRPPRLPRPRPRPVGEPRP | 0.332
RRIRSRPPRLPRPRPRPVIAPRP | 0.053
RRIRSRPPRLPRPRPRPVIFPRP | -0.335
RRIRSRPPRLPRPRPRPVKWPRP | -0.03
RRIRSRPPRLPRPRPRPVNWPRP | 0.142
RRIRSRPPRLPRPRPRPVPIPRP | 0.129
RRIRSRPPRLPRPRPRPVPPPRP | 0.329
RRIRSRPPRLPRPRPRPVQIPRP | 0.111
RRIRSRPPRLPRPRPRPVQWPRP | 0.175
RRIRSRPPRLPRPRPRPVRPPRP | 0.742
RRIRSRPPRLPRPRPRPVSIPRP | -0.319
RRIRSRPPRLPRPRPRPVSLPRP | -0.122
RRIRSRPPRLPRPRPRPVVWPRP | 0.462
RRIRSRPPRLPRPRPRPVYSPRP | -0.0582
RRIRSRPPRLPRPRPRPWAFPRP | -0.072
RRIRSRPPRLPRPRPRPWAPPRP | 0.0324

Sequence | shrunken log2 fold change
RRIRSRPPRLPRPRPRPWASPRP | -0.114
RRIRSRPPRLPRPRPRPWAYPRP | -0.107
RRIRSRPPRLPRPRPRPWCCPRP | -0.544
RRIRSRPPRLPRPRPRPWCFPRP | -0.715
RRIRSRPPRLPRPRPRPWCIPRP | -0.0292
RRIRSRPPRLPRPRPRPWCQPRP | -0.119
RRIRSRPPRLPRPRPRPWDDPRP | -0.0242
RRIRSRPPRLPRPRPRPWDHPRP | -0.143
RRIRSRPPRLPRPRPRPWFIPRP | -0.311
RRIRSRPPRLPRPRPRPWGDPRP | -0.077
RRIRSRPPRLPRPRPRPWGIPRP | -0.118
RRIRSRPPRLPRPRPRPWGMPRP | -0.0848
RRIRSRPPRLPRPRPRPWHKPRP | -0.195
RRIRSRPPRLPRPRPRPWHTPRP | -0.348
RRIRSRPPRLPRPRPRPWKAPRP | -0.00809
RRIRSRPPRLPRPRPRPWKEPRP | -0.0075
RRIRSRPPRLPRPRPRPWKYPRP | 0.0245
RRIRSRPPRLPRPRPRPWLDPRP | -0.0811
RRIRSRPPRLPRPRPRPWLHPRP | -0.254
RRIRSRPPRLPRPRPRPWLTPRP | -0.0675
RRIRSRPPRLPRPRPRPWMDPRP | -0.0373
RRIRSRPPRLPRPRPRPWMMPRP | -0.165
RRIRSRPPRLPRPRPRPWMVPRP | -0.267
RRIRSRPPRLPRPRPRPWQHPRP | 0.14
RRIRSRPPRLPRPRPRPWSLPRP | -0.0411

Sequence | shrunken log2 fold change
RRIRSRPPRLPRPRPRPWSVPRP | -0.305
RRIRSRPPRLPRPRPRPWWEPRP | -0.0921
RRIRSRPPRLPRPRPRPWYEPRP | -0.0183
RRIRSRPPRLPRPRPRPWYNPRP | -0.502
RRIRSRPPRLPRPRPRPYCMPRP | -0.881
RRIRSRPPRLPRPRPRPYDPPRP | -1
RRIRSRPPRLPRPRPRPYELPRP | 0.093
RRIRSRPPRLPRPRPRPYFTPRP | 1.09
RRIRSRPPRLPRPRPRPYFWPRP | -0.538
RRIRSRPPRLPRPRPRPYGQPRP | -0.134
RRIRSRPPRLPRPRPRPYHRPRP | -0.507
RRIRSRPPRLPRPRPRPYKEPRP | -0.0146
RRIRSRPPRLPRPRPRPYKHPRP | -0.734
RRIRSRPPRLPRPRPRPYKIPRP | -0.846
RRIRSRPPRLPRPRPRPYKYPRP | -0.637
RRIRSRPPRLPRPRPRPYLRPRP | -0.00709
RRIRSRPPRLPRPRPRPYLSPRP | -0.062
RRIRSRPPRLPRPRPRPYMKPRP | -0.421
RRIRSRPPRLPRPRPRPYMQPRP | -0.145
RRIRSRPPRLPRPRPRPYPDPRP | -0.172
RRIRSRPPRLPRPRPRPYRNPRP | -0.254
RRIRSRPPRLPRPRPRPYRRPRP | -0.0841
RRIRSRPPRLPRPRPRPYRYPRP | -0.262
RRIRSRPPRLPRPRPRPYSDPRP | -0.0368
RRIRSRPPRLPRPRPRPYTAPRP | -0.752
